Test results published in publication PMC7605860.

B1: corin: N567Q (protein)
parent chain: MKQSPALAPEERCRRAGSPKPVLRADDNNMGNGCSQKLATANLLRFLLLVLIPCICALVLLLVILLSYVGTLQKVYFKSNGSEPLVTDGEIQGSDVILTNTIYNQSTVVSTAHPDQHVPAWTTDASLPGDQSHRNTSACMNITHSQCQMLPYHATLTPLLSVVRNMEMEKFLKFFTYLHRLSCYQHIMLFGCTLAFPECIIDGDDSHGLLPCRSFCEAAKEGCESVLGMVNYSWPDFLRCSQFRNQTESSNVSRICFSPQQENGKQLLCGRGENFLCASGICIPGKLQCNGYNDCDDWSDEAHCNCSENLFHCHTGKCLNYSLVCDGYDDCGDLSDEQNCDCNPTTEHRCGDGRCIAMEWVCDGDHDCVDKSDEVNCSCHSQGLVECRNGQCIPSTFQCDGDEDCKDGSDEENCSVIQTSCQEGDQRCLYNPCLDSCGGSSLCDPNNSLNNCSQCEPITLELCMNLPYNSTSYPNYFGHRTQKEASISWESSLFPALVQTNCYKYLMFFSCTILVPKCDVNTGEHIPPCRALCEHSKERCESVLGIVGLQWPEDTDCSQFPEENSDNQTCLMPDEYVEECSPSHFKCRSGQCVLASRRCDGQADCDDDSDEENCGCKERDLWECPSNKQCLKHTVICDGFPDCPDYMDEKNCSFCQDDELECANHACVSRDLWCDGEADCSDSSDEWDCVTLSINVNSSSFLMVHRAATEHHVCADGWQEILSQLACKQMGLGEPSVTKLIQEQEKEPRWLTLHSNWESLNGTTLHELLVNGQSCESRSKISLLCTKQDCGRRPAARMNKRILGGRTSRPGRWPWQCSLQSEPSGHICGCVLIAKKWVLTVAHCFEGRENAAVWKVVLGINNLDHPSVFMQTRFVKTIILHPRYSRAVVDYDISIVELSEDISETGYVRPVCLPNPEQWLEPDTYCYITGWGHMGNKMPFKLQEGEVRIISLEHCQSYFDMKTITTRMICAGYESGTVDSCMGDSGGPLVCEKPGGRWTLFGLTSWGSVCFSKVLGPGVYSNVSYFVEWIKRQIYIQTFLLN
B2: corin: N1022Q (protein)
parent chain: MKQSPALAPEERCRRAGSPKPVLRADDNNMGNGCSQKLATANLLRFLLLVLIPCICALVLLLVILLSYVGTLQKVYFKSNGSEPLVTDGEIQGSDVILTNTIYNQSTVVSTAHPDQHVPAWTTDASLPGDQSHRNTSACMNITHSQCQMLPYHATLTPLLSVVRNMEMEKFLKFFTYLHRLSCYQHIMLFGCTLAFPECIIDGDDSHGLLPCRSFCEAAKEGCESVLGMVNYSWPDFLRCSQFRNQTESSNVSRICFSPQQENGKQLLCGRGENFLCASGICIPGKLQCNGYNDCDDWSDEAHCNCSENLFHCHTGKCLNYSLVCDGYDDCGDLSDEQNCDCNPTTEHRCGDGRCIAMEWVCDGDHDCVDKSDEVNCSCHSQGLVECRNGQCIPSTFQCDGDEDCKDGSDEENCSVIQTSCQEGDQRCLYNPCLDSCGGSSLCDPNNSLNNCSQCEPITLELCMNLPYNSTSYPNYFGHRTQKEASISWESSLFPALVQTNCYKYLMFFSCTILVPKCDVNTGEHIPPCRALCEHSKERCESVLGIVGLQWPEDTDCSQFPEENSDNQTCLMPDEYVEECSPSHFKCRSGQCVLASRRCDGQADCDDDSDEENCGCKERDLWECPSNKQCLKHTVICDGFPDCPDYMDEKNCSFCQDDELECANHACVSRDLWCDGEADCSDSSDEWDCVTLSINVNSSSFLMVHRAATEHHVCADGWQEILSQLACKQMGLGEPSVTKLIQEQEKEPRWLTLHSNWESLNGTTLHELLVNGQSCESRSKISLLCTKQDCGRRPAARMNKRILGGRTSRPGRWPWQCSLQSEPSGHICGCVLIAKKWVLTVAHCFEGRENAAVWKVVLGINNLDHPSVFMQTRFVKTIILHPRYSRAVVDYDISIVELSEDISETGYVRPVCLPNPEQWLEPDTYCYITGWGHMGNKMPFKLQEGEVRIISLEHCQSYFDMKTITTRMICAGYESGTVDSCMGDSGGPLVCEKPGGRWTLFGLTSWGSVCFSKVLGPGVYSNVSYFVEWIKRQIYIQTFLLN
B3: corin: N651Q (protein)
parent chain: MKQSPALAPEERCRRAGSPKPVLRADDNNMGNGCSQKLATANLLRFLLLVLIPCICALVLLLVILLSYVGTLQKVYFKSNGSEPLVTDGEIQGSDVILTNTIYNQSTVVSTAHPDQHVPAWTTDASLPGDQSHRNTSACMNITHSQCQMLPYHATLTPLLSVVRNMEMEKFLKFFTYLHRLSCYQHIMLFGCTLAFPECIIDGDDSHGLLPCRSFCEAAKEGCESVLGMVNYSWPDFLRCSQFRNQTESSNVSRICFSPQQENGKQLLCGRGENFLCASGICIPGKLQCNGYNDCDDWSDEAHCNCSENLFHCHTGKCLNYSLVCDGYDDCGDLSDEQNCDCNPTTEHRCGDGRCIAMEWVCDGDHDCVDKSDEVNCSCHSQGLVECRNGQCIPSTFQCDGDEDCKDGSDEENCSVIQTSCQEGDQRCLYNPCLDSCGGSSLCDPNNSLNNCSQCEPITLELCMNLPYNSTSYPNYFGHRTQKEASISWESSLFPALVQTNCYKYLMFFSCTILVPKCDVNTGEHIPPCRALCEHSKERCESVLGIVGLQWPEDTDCSQFPEENSDNQTCLMPDEYVEECSPSHFKCRSGQCVLASRRCDGQADCDDDSDEENCGCKERDLWECPSNKQCLKHTVICDGFPDCPDYMDEKNCSFCQDDELECANHACVSRDLWCDGEADCSDSSDEWDCVTLSINVNSSSFLMVHRAATEHHVCADGWQEILSQLACKQMGLGEPSVTKLIQEQEKEPRWLTLHSNWESLNGTTLHELLVNGQSCESRSKISLLCTKQDCGRRPAARMNKRILGGRTSRPGRWPWQCSLQSEPSGHICGCVLIAKKWVLTVAHCFEGRENAAVWKVVLGINNLDHPSVFMQTRFVKTIILHPRYSRAVVDYDISIVELSEDISETGYVRPVCLPNPEQWLEPDTYCYITGWGHMGNKMPFKLQEGEVRIISLEHCQSYFDMKTITTRMICAGYESGTVDSCMGDSGGPLVCEKPGGRWTLFGLTSWGSVCFSKVLGPGVYSNVSYFVEWIKRQIYIQTFLLN
B4: corin: N761Q (protein)
parent chain: MKQSPALAPEERCRRAGSPKPVLRADDNNMGNGCSQKLATANLLRFLLLVLIPCICALVLLLVILLSYVGTLQKVYFKSNGSEPLVTDGEIQGSDVILTNTIYNQSTVVSTAHPDQHVPAWTTDASLPGDQSHRNTSACMNITHSQCQMLPYHATLTPLLSVVRNMEMEKFLKFFTYLHRLSCYQHIMLFGCTLAFPECIIDGDDSHGLLPCRSFCEAAKEGCESVLGMVNYSWPDFLRCSQFRNQTESSNVSRICFSPQQENGKQLLCGRGENFLCASGICIPGKLQCNGYNDCDDWSDEAHCNCSENLFHCHTGKCLNYSLVCDGYDDCGDLSDEQNCDCNPTTEHRCGDGRCIAMEWVCDGDHDCVDKSDEVNCSCHSQGLVECRNGQCIPSTFQCDGDEDCKDGSDEENCSVIQTSCQEGDQRCLYNPCLDSCGGSSLCDPNNSLNNCSQCEPITLELCMNLPYNSTSYPNYFGHRTQKEASISWESSLFPALVQTNCYKYLMFFSCTILVPKCDVNTGEHIPPCRALCEHSKERCESVLGIVGLQWPEDTDCSQFPEENSDNQTCLMPDEYVEECSPSHFKCRSGQCVLASRRCDGQADCDDDSDEENCGCKERDLWECPSNKQCLKHTVICDGFPDCPDYMDEKNCSFCQDDELECANHACVSRDLWCDGEADCSDSSDEWDCVTLSINVNSSSFLMVHRAATEHHVCADGWQEILSQLACKQMGLGEPSVTKLIQEQEKEPRWLTLHSNWESLNGTTLHELLVNGQSCESRSKISLLCTKQDCGRRPAARMNKRILGGRTSRPGRWPWQCSLQSEPSGHICGCVLIAKKWVLTVAHCFEGRENAAVWKVVLGINNLDHPSVFMQTRFVKTIILHPRYSRAVVDYDISIVELSEDISETGYVRPVCLPNPEQWLEPDTYCYITGWGHMGNKMPFKLQEGEVRIISLEHCQSYFDMKTITTRMICAGYESGTVDSCMGDSGGPLVCEKPGGRWTLFGLTSWGSVCFSKVLGPGVYSNVSYFVEWIKRQIYIQTFLLN
B5: corin: N697Q (protein)
parent chain: MKQSPALAPEERCRRAGSPKPVLRADDNNMGNGCSQKLATANLLRFLLLVLIPCICALVLLLVILLSYVGTLQKVYFKSNGSEPLVTDGEIQGSDVILTNTIYNQSTVVSTAHPDQHVPAWTTDASLPGDQSHRNTSACMNITHSQCQMLPYHATLTPLLSVVRNMEMEKFLKFFTYLHRLSCYQHIMLFGCTLAFPECIIDGDDSHGLLPCRSFCEAAKEGCESVLGMVNYSWPDFLRCSQFRNQTESSNVSRICFSPQQENGKQLLCGRGENFLCASGICIPGKLQCNGYNDCDDWSDEAHCNCSENLFHCHTGKCLNYSLVCDGYDDCGDLSDEQNCDCNPTTEHRCGDGRCIAMEWVCDGDHDCVDKSDEVNCSCHSQGLVECRNGQCIPSTFQCDGDEDCKDGSDEENCSVIQTSCQEGDQRCLYNPCLDSCGGSSLCDPNNSLNNCSQCEPITLELCMNLPYNSTSYPNYFGHRTQKEASISWESSLFPALVQTNCYKYLMFFSCTILVPKCDVNTGEHIPPCRALCEHSKERCESVLGIVGLQWPEDTDCSQFPEENSDNQTCLMPDEYVEECSPSHFKCRSGQCVLASRRCDGQADCDDDSDEENCGCKERDLWECPSNKQCLKHTVICDGFPDCPDYMDEKNCSFCQDDELECANHACVSRDLWCDGEADCSDSSDEWDCVTLSINVNSSSFLMVHRAATEHHVCADGWQEILSQLACKQMGLGEPSVTKLIQEQEKEPRWLTLHSNWESLNGTTLHELLVNGQSCESRSKISLLCTKQDCGRRPAARMNKRILGGRTSRPGRWPWQCSLQSEPSGHICGCVLIAKKWVLTVAHCFEGRENAAVWKVVLGINNLDHPSVFMQTRFVKTIILHPRYSRAVVDYDISIVELSEDISETGYVRPVCLPNPEQWLEPDTYCYITGWGHMGNKMPFKLQEGEVRIISLEHCQSYFDMKTITTRMICAGYESGTVDSCMGDSGGPLVCEKPGGRWTLFGLTSWGSVCFSKVLGPGVYSNVSYFVEWIKRQIYIQTFLLN

Test: immunostaining, confocal microscopy, FBL/FTotal ratio in polarized MDCK cells
Conditions: glycan lost; control: corin WT

localisation_or_trafficking, no change:
B1
B2
B3
B4
B5
